Measurements reported in patent US20250101135A1 (Hoffmann-La Roche, published 2025).
Numbering of substitutions follows the chain as printed. Names and notes keep the numbering of the source.

T1: human CD19 (recombinant, form not given) (human, UniProt P15391 20-291, limits assumed)
T1 construct: also called huCD19
T1 sequence (looked up): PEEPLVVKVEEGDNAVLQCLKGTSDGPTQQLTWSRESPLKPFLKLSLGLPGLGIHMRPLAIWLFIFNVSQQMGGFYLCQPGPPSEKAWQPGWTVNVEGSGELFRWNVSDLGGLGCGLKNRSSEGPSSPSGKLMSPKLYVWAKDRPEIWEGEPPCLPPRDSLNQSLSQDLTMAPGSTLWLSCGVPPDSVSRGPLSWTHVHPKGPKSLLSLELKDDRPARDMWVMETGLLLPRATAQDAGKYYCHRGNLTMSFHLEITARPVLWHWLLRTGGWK

T2: huCD19 ECD (human, UniProt P15391 20-291)
T2 construct: extracellular domain
T2 sequence (looked up): T1 sequence (looked up)

B1: FAP-targeted murine 4-1BB ligand trimer-containing Fc fusion antigen binding molecule Construct M.1 (Fc fusion)
chain 1: RTEPRPALTITTSPNLGTRENNADQVTPVSHIGSPNTTQQGSPVFAKLLAKNQASLSNTTLNWHSQDGAGSSYLSQGLRYEEDKKELVVDSPGLYYVFLELKLSPTFTNTGHKVQGWVSLVLQAKPQVDDFDNLALTVELFPSSMENKLVDRSWSQLLLLKAGHRLSVGLRAYLHGAQDAYRDWELSYPNTTSFGLFLVKPDNPWEGGGGSGGGGSRTEPRPALTITTSPNLGTRENNADQVTPVSHIGSPNTTQQGSPVFAKLLAKNQASLSNTTLNWHSQDGAGSSYLSQGLRYEEDKKELVVDSPGLYYVFLELKLSPTFTNTGHKVQGWVSLVLQAKPQVDDFDNLALTVELFPSSMENKLVDRSWSQLLLLKAGHRLSVGLRAYLHGAQDAYRDWELSYPNTTSFGLFLVKPDNPWEGGGGSGGGGSRADAAPTVSIFPPSSEQLTSGGASVVCFLNNFYPKDINVKWKIDGSERQNGVLNSWTDQDSKDSTYSMSSTLTLTKDEYERHNSYTCEATHKTSTSPIVKSFNRNECVPRDCGCKPCICTVPEVSSVFIFPPKPKDVLTITLTPKVTCVVVAISKDDPEVQFSWFVDDVEVHTAQTKPREEQINSTFRSVSELPIMHQDWLNGKEFKCRVNSAAFGAPIEKTISKTKGRPKAPQVYTIPPPKEQMAKDKVSLTCMITNFFPEDITVEWQWNGQPAENYDNTQPIMDTDGSYFVYSDLNVQKSNWEAGNTFTCSVLHEGLHNHHTEKSLSHSPGK
chain 2: RTEPRPALTITTSPNLGTRENNADQVTPVSHIGSPNTTQQGSPVFAKLLAKNQASLSNTTLNWHSQDGAGSSYLSQGLRYEEDKKELVVDSPGLYYVFLELKLSPTFTNTGHKVQGWVSLVLQAKPQVDDFDNLALTVELFPSSMENKLVDRSWSQLLLLKAGHRLSVGLRAYLHGAQDAYRDWELSYPNTTSFGLFLVKPDNPWEGGGGSGGGGSAKTTPPSVYPLAPGSAAQTNSMVTLGCLVKGYFPEPVTVTWNSGSLSSGVHTFPAVLQSDLYTLSSSVTVPSSTWPSQTVTCNVAHPASSTKVDKKIVPRDC
heavy: EVQLLESGGGLVQPGGSLRLSCAASGFTFSSHAMSWVRQAPGKGLEWVSAIWASGEQYYADSVKGRFTISRDNSKNTLYLQMNSLRAEDTAVYYCAKGWLGNFDYWGQGTLVTVSSAKTTPPSVYPLAPGSAAQTNSMVTLGCLVKGYFPEPVTVTWNSGSLSSGVHTFPAVLQSDLYTLSSSVTVPSSTWPSQTVTCNVAHPASSTKVDKKIVPRDCGCKPCICTVPEVSSVFIFPPKPKDVLTITLTPKVTCVVVAISKDDPEVQFSWFVDDVEVHTAQTKPREEQINSTFRSVSELPIMHQDWLNGKEFKCRVNSAAFGAPIEKTISKTKGRPKAPQVYTIPPPKKQMAKDKVSLTCMITNFFPEDITVEWQWNGQPAENYKNTQPIMKTDGSYFVYSKLNVQKSNWEAGNTFTCSVLHEGLHNHHTEKSLSHSPGK
light: EIVLTQSPGTLSLSPGERATLSCRASQSVSRSYLAWYQQKPGQAPRLLIIGASTRATGIPDRFSGSGSGTDFTLTISRLEPEDFAVYYCQQGQVIPPTFGQGTKVEIKRADAAPTVSIFPPSSEQLTSGGASVVCFLNNFYPKDINVKWKIDGSERQNGVLNSWTDQDSKDSTYSMSSTLTLTKDEYERHNSYTCEATHKTSTSPIVKSFNRNEC
notes: murine IgG1 DD/KK, DAPG; anti-FAP 28H1
B2: FAP-targeted murine 4-1BB ligand trimer-containing Fc fusion antigen binding molecule Construct M.2 (Fc fusion)
chain 1: B1 chain 1 with S34C, S143C, S250C, S359C
chain 2: B1 chain 2 with S34C, S143C
heavy: B1 heavy
light: B1 light
B3: humanized anti-human CD19 antibody var.9 (S27eP/N28S) (antibody, V domains shown)
VH: QVQLVQSGAEVKKPGASVKVSCKASGYTFTDYIMHWVRQAPGQGLEWMGYINPYNDGSKYTEKFQGRVTMTSDTSISTAYMELSRLRSDDTAVYYCARGTYYYGSALFDYWGQGTTVTVSS
VL: DIVMTQTPLSLSVTPGQPASISCKSSQSLENPSGNTYLNWYLQKPGQSPQLLIYRVSKRFSGVPDRFSGSGSGTDFTLKISRVEAEDVGVYYCLQLTHVPYTFGQGTKLEIK
notes: also called variant 9
B4: humanized anti-human CD19 antibody var.5 (S27eP), named clone 8B8-018 (antibody, V domains shown)
VH: B3 VH
VL: B3 VL with S33N
notes: 5 is named clone 8B8-018; also called variant 5
B5: wild-type humanized anti-human CD19 antibody (var.0) (antibody, V domains shown)
VH: B3 VH with Q65N, R67K, V68A
VL: B3 VL with P32S, S33N
notes: humanized 8B8; also called variant 0; wt
B6: parental anti-CD19 clone 8B8, Fab in bacterial supernatant (Fab, V domains shown)
VH: B3 VH
VL: B3 VL with S33N
notes: conflicting; also called Parental 8B8; parental humanized clone 8B8
B7: anti-CD19 clone 8B8-2B11, Fab in bacterial supernatant (Fab, V domains shown)
VH: B3 VH with S105P, A106Q
VL: B3 VL with N31T, P32S, S33T, N35T, T97L, H98E, V99D
B8: anti-CD19 clone 8B8-7H07, Fab in bacterial supernatant (Fab, V domains shown)
VH: B3 VH with A106E
VL: B3 VL with N31T, P32S, S33T, L96A, V99I
B9: anti-CD19 clone 8B8-5D08, Fab in bacterial supernatant (Fab, V domains shown)
VH: B3 VH with A106E
VL: B3 VL with N31T, P32S, S33T, V99E
B10: anti-CD19 clone 8B8-2B03, Fab in bacterial supernatant (Fab, V domains shown)
VH: B3 VH with M34T, S105P, A106D
VL: B3 VL with N31T, P32S, S33T
notes: printed VL holds an X
B11: anti-CD19 clone 8B8-5H09, Fab in bacterial supernatant (Fab, V domains shown)
VH: B3 VH
VL: B3 VL with N31S, P32S, S33T, T97I, H98D, V99Y, Y101V
B12: anti-CD19 clone 8B8-5D08 in P329GLALA human IgG1 format (antibody, V domains shown)
VH: B3 VH with A106E
VL: DIVMTQTPLSLSVTPGQPASISCKSSQSLETSTGNTYLNWYLQKPGQSPQLLIYRVSKRFSGVPDRFSGSGSGTDFTLKISRVEAEDVGVYYCLQLTHEPYTFGQGTKLEIKR
B13: anti-CD19 clone 8B8-5H09 in P329GLALA human IgG1 format (antibody, V domains shown)
VH: B3 VH
VL: B12 VL with T31S, T97I, H98D, E99Y, Y101V
B14: anti-CD19 clone 8B8-2B03 in P329GLALA human IgG1 format (antibody, V domains shown)
VH: B3 VH with M34T, S105P, A106D
VL: B12 VL with E99V
notes: light chain holds an X
B15: anti-CD19 clone 8B8-5B08 in P329GLALA human IgG1 format (antibody, V domains shown)
VH: B3 VH with S105P, A106Q
VL: B12 VL with T97D, H98S, E99Y, Y101N
B16: anti-CD19 clone 8B8-5A07 in P329GLALA human IgG1 format (antibody, V domains shown)
VH: B3 VH
VL: B12 VL with L96P, T97G, E99Y, Y101G
B17: anti-CD19 clone 8B8-7H07 in P329GLALA human IgG1 format (antibody, V domains shown)
VH: B3 VH with A106E
VL: B12 VL with L96A, E99I
B18: anti-CD19 clone 8B8-2B11 in P329GLALA human IgG1 format (antibody, V domains shown)
VH: B3 VH with S105P, A106Q
VL: B12 VL with N35T, T97L, H98E, E99D
B19: anti-CD19 clone 8B8 (parental) in P329GLALA human IgG1 format (antibody, V domains shown)
VH: EVQLQQSGPELVKPGASVKMACKASGYTFTDYIMHWVKQKTGQGLEWIGYINPYNDGSKYTEKFNGKATLTSDKSSITAYMELSSLTSEDSAVYYCARGTYYYGSALFDYWGQGTTLTVSS
VL: DAVMTQTPLSLPVSLGDQASISCRSSQSLENSNGNTYLNWYLQKPGQSPQLLIYRVSKRFSGVLDRFSGSGSGTDFTLKISRVEAEDLGVYFCLQLTHVPYTFGGGTKLEIKR
notes: also called Parental 8B8

The binders below were run against T3, human fibroblast activation protein (FAP) on cells (human, UniProt Q12884 1-760) (assay: flow cytometry on FAP+ MV-3 cells).
T3 construct: also called human FAP; huFAP

EC50 [nM] | Binder
7.26 | B1
6.9 | B2

What follows are binders tested against T1, human CD19 (recombinant, form not …) (assay: BIACORE (SPR), format not described).

Kd [nM] | t1/2 [min] | Binder
45 | 4 | B3
6 | 43.6 | B4

Each binder was assayed against T3, human fibroblast activation protein … (assay: flow cytometry on FAP+ WM-266-4 cells).

EC50 [nM] | Binder
5.14 | B1
5.63 | B2

The binders below were run against T2, huCD19 ECD (assay: binding to CD19 ECD, assay not described).

EC50 [µg/mL] | Binder
0.089 | B3
0.084 | B4

The binders below were run against T4, cyCD19 ECD (cynomolgus) (assay: binding to CD19 ECD, assay not described).
T4 construct: extracellular domain; also called cynomolgus CD19

EC50 [µg/mL] | Binder
0.313 | B5
0.435 | B3
0.255 | B4

Each binder was assayed against T1, human CD19 (recombinant, form not …) (assay: relative binding after incubation, method not described).

human CD19 binding after pH 6.0 incubation [%] | human CD19 binding after pH 7.4 incubation [%] | Binder
87 | – | B3
99 | 95 | B4

Each binder was assayed against T5, mouse 4-1BB on activated mouse splenocytes (mouse, UniProt P20334 24-256) (assay: flow cytometry on activated mouse splenocytes, 4-1BB+ CD4+ T cells).
T5 construct: whole, on cells; also called murine 4-1BB
T5 sequence (P20334 24-256): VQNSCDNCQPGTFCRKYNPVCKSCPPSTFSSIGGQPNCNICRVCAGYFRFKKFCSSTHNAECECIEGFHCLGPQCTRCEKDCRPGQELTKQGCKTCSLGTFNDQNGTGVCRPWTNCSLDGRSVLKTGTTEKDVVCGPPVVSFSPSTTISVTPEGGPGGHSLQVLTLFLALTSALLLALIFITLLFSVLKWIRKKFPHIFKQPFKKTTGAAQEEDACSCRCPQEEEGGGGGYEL

EC50 [nM] | Binder
0.52 | B1
0.42 | B2

The binders below were run against T5, mouse 4-1BB on activated mouse … (assay: flow cytometry on activated mouse splenocytes, 4-1BB+ CD8+ T cells).

EC50 [nM] | Binder
0.87 | B1
0.54 | B2

Each binder was assayed against T6, monomeric human CD19 antigen Fc(kih) fusion molecule (human, UniProt P0DOX5 223-449 = IgG part) (assay: SPR ProteOn XPR36, Fab from bacterial supernatant captured via anti-human Fab, monomeric CD19-Fc analyte).
T6 construct: also called monomeric CD19-Fc; human CD19-Fc(kih)

koff [s⁻¹] | Binder
0.000301 | B6
4.37e-06 | B7
5.75e-05 | B8
0.000195 | B9
3.24e-05 | B10
0.000258 | B11

Each binder was assayed against T6, monomeric human CD19 antigen Fc(kih) … (assay: SPR ProteOn XPR36, IgG from HEK supernatant captured via anti-human Fab, monomeric CD19-Fc analyte, 1:1 Langmuir).

Kd [nM] | koff [s⁻¹] | kon [M⁻¹ s⁻¹] | Binder
0.951 | 8.44e-05 | 88800 | B12
0.189 | 1.5e-05 | 79100 | B13
0.831 | 5e-05 | 60200 | B14
0.772 | 5.26e-05 | 68100 | B15
0.44 | 3.07e-05 | 69800 | B16
0.747 | 5.57e-05 | 74500 | B17
0.495 | 3.14e-05 | 63400 | B18
2.36 | 0.000134 | 56600 | B19
